Consider one substance from PMC4612324.

The term EC50 denotes the concentration that produces a half-maximal response. Low readings indicate higher potency in that assay, high ones lower potency in that assay.

This assay deals with Aβ 1-40 peptide (UniProt P05067). Description: ELISA; Aβ1-40 peptide coated on Maxisorp plates (0.1 µg/ml, bicarbonate buffer pH 9.6); antibodies serially diluted in PBS/1 % BSA, 1 h at room temperature; detected with biotinylated anti-mouse IgG and streptavidin poly-HRP; relative affinity. In general terms: ELISA stands for enzyme-linked immunosorbent assay.

Turning to “chGantenerumab (mouse/human chimeric version of Gantenerumab with mouse IgG2a constant region) (antibody)”, the 50% effective concentration (EC50) was 0.34 pM.
